Source: patent US10442866 (BEIJING MABWORKS BIOTECH, dated 2019)
Like-named read-outs stand apart in the source and are kept apart here.

T1: rhesus OX40 expressed on HEK293A cells (rhesus, UniProt P43489 29-277 (human entry))
T1 construct: also called HEK293A/rhOX40; HEK293A/rhesusOX40 cells
T1 chain: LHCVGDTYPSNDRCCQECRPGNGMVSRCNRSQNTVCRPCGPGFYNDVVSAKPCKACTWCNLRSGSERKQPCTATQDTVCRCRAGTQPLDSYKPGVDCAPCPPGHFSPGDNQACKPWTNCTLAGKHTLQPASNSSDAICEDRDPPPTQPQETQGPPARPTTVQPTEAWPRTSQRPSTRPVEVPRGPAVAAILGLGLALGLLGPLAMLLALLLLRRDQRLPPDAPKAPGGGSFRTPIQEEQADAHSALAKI

T2: murine OX40-His (Crown, Cat#: E3350-B1707) (mouse, UniProt P47741 20-211)
T2 construct: bought protein; also called mouse OX40-his; muOX40-his; not shown: His tag
T2 sequence: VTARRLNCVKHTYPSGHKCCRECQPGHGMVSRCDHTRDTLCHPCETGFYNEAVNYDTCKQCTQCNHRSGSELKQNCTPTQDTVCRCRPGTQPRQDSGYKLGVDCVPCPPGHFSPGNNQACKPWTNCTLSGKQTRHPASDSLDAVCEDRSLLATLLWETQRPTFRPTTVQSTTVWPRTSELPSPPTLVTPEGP

T3: recombinant rhesus OX40-his (Sino Biological, Cat#:90846-C08H) (rhesus monkey, UniProt P43489 29-214 (human entry))
T3 construct: bought protein; also called monkey OX40-his; rhOX40-his; not shown: His tag
T3 chain: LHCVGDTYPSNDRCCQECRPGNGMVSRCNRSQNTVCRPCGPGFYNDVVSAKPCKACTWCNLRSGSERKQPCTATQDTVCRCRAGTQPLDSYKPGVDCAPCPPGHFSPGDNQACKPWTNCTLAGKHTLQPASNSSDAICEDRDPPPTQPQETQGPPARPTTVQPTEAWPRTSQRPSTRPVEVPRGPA

T4: recombinant human OX40-his (Sino Biological, Cat#:10481-H03H) (human, UniProt P43489 29-214)
T4 construct: bought protein; also called hOX40-his; not shown: His tag
T4 sequence: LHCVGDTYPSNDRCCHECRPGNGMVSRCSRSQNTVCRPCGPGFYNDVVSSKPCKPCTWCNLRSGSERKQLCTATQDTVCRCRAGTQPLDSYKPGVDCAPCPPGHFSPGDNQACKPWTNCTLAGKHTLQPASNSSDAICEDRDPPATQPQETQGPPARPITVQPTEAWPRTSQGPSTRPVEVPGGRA

T5: human OX40 expressed on HEK293A cells (human, UniProt P43489 29-277)
T5 construct: also called HEK293A/huOX40; HEK293A/human OX40 cells
T5 sequence: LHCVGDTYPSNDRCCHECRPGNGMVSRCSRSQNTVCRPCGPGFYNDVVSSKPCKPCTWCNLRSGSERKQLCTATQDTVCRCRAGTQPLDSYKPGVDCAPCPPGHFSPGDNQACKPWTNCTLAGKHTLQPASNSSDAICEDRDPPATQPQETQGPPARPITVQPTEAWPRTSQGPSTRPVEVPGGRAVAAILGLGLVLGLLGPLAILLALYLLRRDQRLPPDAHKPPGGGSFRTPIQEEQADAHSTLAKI


Key:
[1] = target: T1, rhesus OX40 expressed on HEK293A cells; experiment: FACS on HEK293A/rhesus OX40 cells, MFI (panel without title; monkey OX40 by the legend)
Experimental: Briefly, 10^5 HEK293A cells were seeded into each well of the 96-well plates and serially diluted anti-OX40 antibodies were added to the plates. After incubated at 4° C. for 1 hour, plates were washed 3 times with PBST. Then, an APC coupled Goat Anti-Mouse IgG (BioLegen, US, Cat#: 405308) diluted 500× was added to the plates. After incubation at 4° C. for 1 hour, the plates were washed with PBS for 3 times and then cell fluorescence was monitored using a FACS machine (BD).
Example 15 Humanized Anti-OX40 Antibodies Bound to Human or Rhesus OX40 Expressed on HEK293A Cells The humanized anti-OX40 antibodies were also tested for their ability of binding to HEK293A/huOX40 cells or HEK293A/rhOX40 cells, following the FACS analysis protocol as described in Example 5.

[2] = target: T2, murine OX40-His (Crown, Cat#: …); experiment: ELISA on coated mouse OX40-His, OD450
[3] = target: T3, recombinant rhesus OX40-his (Sino …); experiment: ELISA on coated rhesus OX40-His, OD450
[4] = target: T4, recombinant human OX40-his (Sino …); experiment: SPR Biacore 8K, OX40-His on chip, antibody injected
Experimental: SPR assays were used to determine the binding affinity of the chimetic or humanized anti-OX40 antibodies to human OX40 with the BIAcore™ 8K instrument (GE Life Sciences). Briefly, 100-200 response units (RU) of human OX40-His protein (Sino Biological, CN, Cat#:10481-H03H, Lot no.: MA08MA3003) were coupled to CM5 biosensor chips (Cat#: BR-1005-30, GE Life Sciences), followed by blocking of un-reacted groups with 1M ethanolamine. Serially diluted antibodies at concentrations ranging from 0.3 µM to 10 µM were injected into the SPR running buffer (HBS-EP buffer, pH7.4, GE Life Sciences; US; Cat#:BR-1006-69) at 30 µL/minute. The binding capacitity was calculated with the RUs of blank controls subtracted. The association rate (k_a) and dissociation rate (k_d) were calculated using the one-to-one Langmuir binding model (BIA Evaluation Software, GE Life Sciences). The equilibrium dissociation constant K_D was calculated as the k_d/k_a ratio.

[5] = target: T2, murine OX40-His (Crown, Cat#: …); experiment: ELISA on coated mouse OX40-His, OD450; remark: listed apart in the source
[6] = target: T3, recombinant rhesus OX40-his (Sino …); experiment: ELISA on coated rhesus OX40-His, OD450
[7] = target: T4, recombinant human OX40-his (Sino …); experiment: ELISA on coated human OX40-His, OD450
[8] = target: T5, human OX40 expressed on HEK293A cells; experiment: FACS on HEK293A/huOX40 cells
[9] = target: T1, rhesus OX40 expressed on HEK293A cells; experiment: FACS on HEK293A/rhOX40 cells

binding result [1] | binding result [2] | binding result [3] | Kd [4] [nM] | koff [4] [s⁻¹] | kon [4] [M⁻¹ s⁻¹] | binding result [5] | EC50 (read off the curve) [6] [ng/mL] | EC50 (read off the curve) [7] [ng/mL] | EC50 [8] [ng/mL] | EC50 [9] [ng/mL] | Binder
binds | no binding (tested: 10000 ng/ml (log 4)) | binds | 5.07 | 0.00105 | 207000 | – | – | – | – | – | 68C8-VH2VL2 (antibody, human IgG1, kappa, V domains shown, humanized; also called 68C8-H2L2) VH: QVQLVQSGAEVKKPGASVKVSCKVSGDTFTSYWITWVRQRPGKGLEWMGDIHPGSGSTNNNEKFKNRVTMTVDTSTDTAYMELSSLRSEDTAVYYCATLRPYYFVYWGQGTLVTVSS VL: DIQMTQSPSSLSASVGDRVTITCRASQDISNYLNWYQQKPGKTPKLLIYYTSRLLSGVPSRFSGSGSGTDYTLTISSLQPEDFATYYCQQGNTLPLTFGQGTRLEIKR
binds | no binding (tested: 10000 ng/ml (log 4)) | binds | 4.49 | 0.00184 | 410000 | – | – | – | – | – | 68C8-VH0VL0 (antibody, human IgG1, kappa, V domains shown, humanized; also called 68C8-H0L0) VH: QVQLVQSGAEVKKPGASVKVSCKVSGDTFTSYWITWVRQAPGKGLEWMGDIHPGSGSTNNNEKFKNRVTMTEDTSTDTAYMELSSLRSEDTAVYYCATLRPYYFVYWGQGTLVTVSS VL: DIQMTQSPSSLSASVGDRVTITCRASQDISNYLNWYQQKPGKAPKLLIYYTSRLLSGVPSRFSGSGSGTDFTLTISSLQPEDFATYYCQQGNTLPLTFGQGTRLEIKR
binds | no binding (tested: 10000 ng/ml (log 4)) | binds | 4.04 | 0.000821 | 203000 | – | – | – | – | – | 68C8-VH3VL3 (antibody, human IgG1, kappa, V domains shown, humanized; also called 68C8-H3L3) VH: QVQLVQSGAEVKKPGASVKVSCKVSGDTFTSYWITWVRQRPGQGLEWIGDIHPGSGSTNNNEKFKNRVTLTVDTSTDTAYMELSSLRSEDTAVYYCATLRPYYFVYWGQGTLVTVSS VL: DIQMTQSPSSLSASVGDRVTITCRASQDISNYLNWYQQKPGKTVKLLIYYTSRLLSGVPSRFSGSGSGTDYTLTISSLQPEDFATYFCQQGNTLPLTFGQGTRLEIKR
binds | – | – | 6.36 | 0.00207 | 325000 | no binding (tested: 10000 ng/ml (log 4)) | ~3 | ~3 | – | – | 71H8-VH3VL3 (antibody, human IgG1, kappa, V domains shown, humanized; also called 71H8-H3L3) VH: QVQLVQSGAEVKKPGASVKVSCKVSGYTFTSYWITWVRQRPGQGLEWIGDIYPGSGSTNQNEKFKSRVTLTVDTSTDTAYMELSSLRSEDTAVYYCATLRPYYFVYWGQGTLVTVSS VL: DIQMTQSPSSLSASVGDRVTITCRASQDISNYLNWYQQKPGKTVKLLIYYTSRLLSGVPSRFSGSGSGTDYTLTISSLQPEDFATYFCQQGNTLPLTFGQGTRLEIKR
binds | – | – | 9.21 | 0.00274 | 297000 | no binding (tested: 10000 ng/ml (log 4)) | ~3 | ~3 | – | – | 71H8-VH0VL0 (antibody, human IgG1, kappa, V domains shown, humanized; also called 71H8-H0L0) VH: QVQLVQSGAEVKKPGASVKVSCKVSGDTFTSYWITWVRQAPGKGLEWMGDIYPGSGSTNQNEKFKSRVTMTEDTSTDTAYMELSSLRSEDTAVYYCATLRPYYFVYWGQGTLVTVSS VL: DIQMTQSPSSLSASVGDRVTITCRASQDISNYLNWYQQKPGKAPKLLIYYTSRLLSGVPSRFSGSGSGTDFTLTISSLQPEDFATYYCQQGNTLPLTFGQGTRLEIKR
binds | – | – | 4.81 | 0.00172 | 358000 | no binding (tested: 10000 ng/ml (log 4)) | ~3 | ~3 | – | – | 71H8-VH2VL2 (antibody, human IgG1, kappa, V domains shown, humanized; also called 71H8-H2L2) VH: QVQLVQSGAEVKKPGASVKVSCKVSGYTFTSYWITWVRQRPGKGLEWMGDIYPGSGSTNQNEKFKSRVTMTVDTSTDTAYMELSSLRSEDTAVYYCATLRPYYFVYWGQGTLVTVSS VL: DIQMTQSPSSLSASVGDRVTITCRASQDISNYLNWYQQKPGKTPKLLIYYTSRLLSGVPSRFSGSGSGTDYTLTISSLQPEDFATYYCQQGNTLPLTFGQGTRLEIKR
binds | no binding (tested: 10000 ng/ml (log 4)) | binds | 9.55 | 0.00157 | 165000 | – | – | – | – | – | 68C8-VH3VL2 (antibody, human IgG1, kappa, V domains shown, humanized; also called 68C8-H3L2) VH: QVQLVQSGAEVKKPGASVKVSCKVSGDTFTSYWITWVRQRPGQGLEWIGDIHPGSGSTNNNEKFKNRVTLTVDTSTDTAYMELSSLRSEDTAVYYCATLRPYYFVYWGQGTLVTVSS VL: DIQMTQSPSSLSASVGDRVTITCRASQDISNYLNWYQQKPGKTPKLLIYYTSRLLSGVPSRFSGSGSGTDYTLTISSLQPEDFATYYCQQGNTLPLTFGQGTRLEIKR
– | – | – | – | – | – | – | – | – | 177 | 883 | chimeric antibody 6A12 (antibody, human IgG1, kappa, V domains shown, mouse variable regions with human IgG1/kappa constant regions) VH: QVQLQQSGPELVKPGASVKISCKASGYAFSSSWMNWVKQRPGKGLEWIGRIYPGDGITNYNGNFKGKATLTADKSSSTAYMQLSGLTSADSAVYFCAREFIPLGWGTGTTVTVSS VL: DIVMTQTPFSNPVTLGTSASISCRSSKSLLHSNGITYLYWYLQKPGQSPQLLIYQMSNLASGVPDRFSSSGSGTDFTLRISRVEAEDVGVYYCAQNLELPWTFGGGTKLEIKR
– | no binding (tested: 10000 ng/ml (log 4)) | – | 0.187 | 7.35e-05 | 393000 | – | – | – | 134 | 80.7 | chimeric antibody 68C8 (antibody, human IgG1, kappa, V domains shown, mouse variable regions with human IgG1/kappa constant regions) VH: QVQLQQSGAELVKPGASVKMSCKASGDTFTSYWITWVKQRPGQGLEWIGDIHPGSGSTNNNEKFKNKATLTVDTSSSTAYMQLSSLTSEDSAVYYCAKLRPYYFVYWGQGTTLTVSS VL: DIQMTQTTSSLSASLGDRVTISCRASQDISNYLNWYQQKPDGTVKLLIYYTSRLLSGVPSRFSGSGSGTDYSLTISNLEQEDIATYFCQQGNTLPLTFGAGTRLELKR
